For 34 variants, abundance fitness results are on record in the Human Domainome abundance scans (Beltran et al. 2025).

± gives the uncertainty stated by the source.

B1: Transcriptional regulator ERG, residues 117 to 197; numbered along this chain, P11308 (parent)
chain: NMTTNERRVIVPADPTLWSTDHVRQWLEWAVKEYGLPDVNILLFQNIDGKELCKMTKDDFQRLTPSYNADILLSHLHYLRE

In the data set the parent is B1. Kind of data set: abundance fitness (aPCA) (normalised: wild type 0, dead -1); higher = more abundant; growth selection in yeast, the domain comes from the species named. Particulars: Homo sapiens.
NMTTNERRVIVPADPTLWSTDHVRQWLEWAVKEYGFPDVNILLFQNIDGKELCKMTKDDFQRLTPSYNADILLSHLHYLRE [L36F]: the abundance fitness is -0.038 ± 0.1.
For NMTTNERRVIVPADPTLWSTDHVRQWLEWAVKEYGGPDVNILLFQNIDGKELCKMTKDDFQRLTPSYNADILLSHLHYLRE [L36G] the value was -0.563 ± 0.047.
For NMTTNERRVIVPADPTLWSTDHVRQWLEWAVKEYGEPDVNILLFQNIDGKELCKMTKDDFQRLTPSYNADILLSHLHYLRE [L36E] the value was -0.889 ± 0.12; for NMTTNERRVIVPADPTLWSTDHVRQWLEWAVKEYGCPDVNILLFQNIDGKELCKMTKDDFQRLTPSYNADILLSHLHYLRE [L36C], 0.014 ± 0.065; for NMTTNERRVIVPADPTLWSTDHVRQWLEWAVKEYGDPDVNILLFQNIDGKELCKMTKDDFQRLTPSYNADILLSHLHYLRE [L36D], -0.426 ± 0.099.
For NMTTNERRVIVPADPTLWSTDHVRQWLEWAVKEYGAPDVNILLFQNIDGKELCKMTKDDFQRLTPSYNADILLSHLHYLRE [L36A] the value was -0.476 ± 0.055; for NMTTNERRVIVPADPTLWSTDHVRQWLEWAVKEYFLPDVNILLFQNIDGKELCKMTKDDFQRLTPSYNADILLSHLHYLRE [G35F], -0.276 ± 0.12; for NMTTNERRVIVPADPTLWSTDHVRQWLEWAVKEYALPDVNILLFQNIDGKELCKMTKDDFQRLTPSYNADILLSHLHYLRE [G35A], 0.03 ± 0.038.
NMTTNERRVIVPADPTLWSTDHVRQWLEWAVKEYSLPDVNILLFQNIDGKELCKMTKDDFQRLTPSYNADILLSHLHYLRE [G35S]: the abundance fitness was 0.012 ± 0.039.
In the case of NMTTNERRVIVPADPTLWSTDHVRQWLEWAVKEYHLPDVNILLFQNIDGKELCKMTKDDFQRLTPSYNADILLSHLHYLRE [G35H] it was 0.088 ± 0.073; in that of NMTTNERRVIVPADPTLWSTDHVRQWLEWAVKEYVLPDVNILLFQNIDGKELCKMTKDDFQRLTPSYNADILLSHLHYLRE [G35V], -0.05 ± 0.035; in that of NMTTNERRVIVPADPTLWSTDHVRQWLEWAVKEYILPDVNILLFQNIDGKELCKMTKDDFQRLTPSYNADILLSHLHYLRE [G35I], -0.021 ± 0.077.
In the case of NMTTNERRVIVPADPTLWSTDHVRQWLEWAVKEYCLPDVNILLFQNIDGKELCKMTKDDFQRLTPSYNADILLSHLHYLRE [G35C] it was -0.057 ± 0.062; in that of NMTTNERRVIVPADPTLWSTDHVRQWLEWAVKEYDLPDVNILLFQNIDGKELCKMTKDDFQRLTPSYNADILLSHLHYLRE [G35D], 0.063 ± 0.059; in that of NMTTNERRVIVPADPTLWSTDHVRQWLEWAVKEYRLPDVNILLFQNIDGKELCKMTKDDFQRLTPSYNADILLSHLHYLRE [G35R], -0.027 ± 0.035.
For NMTTNERRVIVPADPTLWSTDHVRQWLEWAVKEYQLPDVNILLFQNIDGKELCKMTKDDFQRLTPSYNADILLSHLHYLRE [G35Q] the value was 0.05 ± 0.05; for NMTTNERRVIVPADPTLWSTDHVRQWLEWAVKEYPLPDVNILLFQNIDGKELCKMTKDDFQRLTPSYNADILLSHLHYLRE [G35P], -0.302 ± 0.07; for NMTTNERRVIVPADPTLWSTDHVRQWLEWAVKEYELPDVNILLFQNIDGKELCKMTKDDFQRLTPSYNADILLSHLHYLRE [G35E], 0.009 ± 0.042.
In the case of NMTTNERRVIVPADPTLWSTDHVRQWLEWAVKEYLLPDVNILLFQNIDGKELCKMTKDDFQRLTPSYNADILLSHLHYLRE [G35L], the abundance fitness is -0.069 ± 0.042.
Turning to NMTTNERRVIVPADPTLWSTDHVRQWLEWAVKEYWLPDVNILLFQNIDGKELCKMTKDDFQRLTPSYNADILLSHLHYLRE [G35W], the abundance fitness was -0.273 ± 0.054.
On to NMTTNERRVIVPADPTLWSTDHVRQWLEWAVKEYKLPDVNILLFQNIDGKELCKMTKDDFQRLTPSYNADILLSHLHYLRE [G35K], for which the abundance fitness amounted to 0.044 ± 0.049.
In the case of NMTTNERRVIVPADPTLWSTDHVRQWLEWAVKEYTLPDVNILLFQNIDGKELCKMTKDDFQRLTPSYNADILLSHLHYLRE [G35T], the abundance fitness was found to be 0.061 ± 0.052.
In the case of NMTTNERRVIVPADPTLWSTDHVRQWLEWAVKEYMLPDVNILLFQNIDGKELCKMTKDDFQRLTPSYNADILLSHLHYLRE [G35M] it was -0.047 ± 0.06; in that of NMTTNERRVIVPADPTLWSTDHVRQWLEWAVKETGLPDVNILLFQNIDGKELCKMTKDDFQRLTPSYNADILLSHLHYLRE [Y34T], -0.449 ± 0.084.
For NMTTNERRVIVPADPTLWSTDHVRQWLEWAVKEQGLPDVNILLFQNIDGKELCKMTKDDFQRLTPSYNADILLSHLHYLRE [Y34Q] the value was -0.28 ± 0.084.
As to NMTTNERRVIVPADPTLWSTDHVRQWLEWAVKERGLPDVNILLFQNIDGKELCKMTKDDFQRLTPSYNADILLSHLHYLRE [Y34R], the abundance fitness is -0.211 ± 0.04.
In the case of NMTTNERRVIVPADPTLWSTDHVRQWLEWAVKEVGLPDVNILLFQNIDGKELCKMTKDDFQRLTPSYNADILLSHLHYLRE [Y34V] it was -0.341 ± 0.055; in that of NMTTNERRVIVPADPTLWSTDHVRQWLEWAVKEPGLPDVNILLFQNIDGKELCKMTKDDFQRLTPSYNADILLSHLHYLRE [Y34P], -0.523 ± 0.16; in that of NMTTNERRVIVPADPTLWSTDHVRQWLEWAVKEIGLPDVNILLFQNIDGKELCKMTKDDFQRLTPSYNADILLSHLHYLRE [Y34I], -0.171 ± 0.092.
With NMTTNERRVIVPADPTLWSTDHVRQWLEWAVKEGGLPDVNILLFQNIDGKELCKMTKDDFQRLTPSYNADILLSHLHYLRE [Y34G], the abundance fitness was -0.254 ± 0.041.
For NMTTNERRVIVPADPTLWSTDHVRQWLEWAVKEKGLPDVNILLFQNIDGKELCKMTKDDFQRLTPSYNADILLSHLHYLRE [Y34K] the value was -0.056 ± 0.07; for NMTTNERRVIVPADPTLWSTDHVRQWLEWAVKEHGLPDVNILLFQNIDGKELCKMTKDDFQRLTPSYNADILLSHLHYLRE [Y34H], -0.06 ± 0.094.
For NMTTNERRVIVPADPTLWSTDHVRQWLEWAVKESGLPDVNILLFQNIDGKELCKMTKDDFQRLTPSYNADILLSHLHYLRE [Y34S] the value was -0.278 ± 0.055; for NMTTNERRVIVPADPTLWSTDHVRQWLEWAVKEWGLPDVNILLFQNIDGKELCKMTKDDFQRLTPSYNADILLSHLHYLRE [Y34W], -0.105 ± 0.05.
